This note sets out measurements from article PMC4631118 (Molecular microbiology, 2012).

Assay [1] deals with T1, MBP-A2 (Qβ lysis protein A2 fused to E. coli maltose-binding protein) (bacteriophage Qβ, UniProt Q8LTE2 1-420).
T1 sequence (looked up): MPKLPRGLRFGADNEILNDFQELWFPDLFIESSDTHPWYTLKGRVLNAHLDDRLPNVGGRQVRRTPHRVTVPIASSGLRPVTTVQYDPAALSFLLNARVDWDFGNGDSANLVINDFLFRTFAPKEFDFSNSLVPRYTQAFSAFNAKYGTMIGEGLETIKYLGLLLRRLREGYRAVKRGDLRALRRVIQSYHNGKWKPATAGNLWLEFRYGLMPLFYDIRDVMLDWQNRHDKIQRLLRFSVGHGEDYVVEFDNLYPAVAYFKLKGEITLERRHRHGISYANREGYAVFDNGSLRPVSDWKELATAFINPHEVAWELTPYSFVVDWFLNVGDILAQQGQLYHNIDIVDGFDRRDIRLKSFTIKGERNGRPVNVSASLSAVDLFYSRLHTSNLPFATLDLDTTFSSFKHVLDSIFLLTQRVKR
Briefly: pull-down.

Assay [2] concerns the target T2, A2 cleaved from the MBP fusion protein with TEV protease (bacteriophage Qβ, UniProt Q8LTE2 1-420).
T2 sequence (looked up): T1 sequence (looked up)
In words: fusion cleavage assay.

Residue numbers refer to the chain shown, from its start. Numbers in names are those of the source.

B1: MurA (E. coli), purified, with C-terminal oligo-histidine tag (enzyme)
chain: MDKFRVQGPTKLQGEVTISGAKNAALPILFAALLAEEPVEIQNVPKLKDVDTSMKLLSQLGAKVERNGSVHIDARDVNVFCAPYDLVKTMRASIWALGPLVARFGQGQVSLPGGCTIGARPVDLHISGLEQLGATIKLEEGYVKASVDGRLKGAHIVMDKVSVGATVTIMCAATLAEGTTIIENAAREPEIVDTANFLITLGAKISGQGTDRIVIEGVERLGGGVYRVLPDRIETGTFLVAAAISRGKIICRNAQPDTLDAVLAKLRDAGADIEVGEDWISLDMHGKRPKAVNVRTAPHPAFPTDMQAQFTLLNLVAEGTGFITETVFENRFMHVPELSRMGAHAEIESNTVICHGVEKLSGAQVMATDLRASASLVLAGCIAEGTTVVDRIYHIDRGYERIEDKLRALGANIERVKGE
Turning to B1, the binding result in assay [1] is “binds”.

B2: MurA^D305A, purified (enzyme, E. coli)
chain: B1 chain with D305A
Take B2: the binding result in assay [2] is reported as “binds”.
